This note sets out measurements from patent US20190177415A1 (PIERRE FABRE MEDICAMENT, published 2019).

The chains are these.
T1: chimeric C10orf54: human IgV with mouse STALK (construct CC5) (human/mouse chimera)
T1 construct: also called C10orf54 Construct 5; hsIGVmmSTALK
T1 chain: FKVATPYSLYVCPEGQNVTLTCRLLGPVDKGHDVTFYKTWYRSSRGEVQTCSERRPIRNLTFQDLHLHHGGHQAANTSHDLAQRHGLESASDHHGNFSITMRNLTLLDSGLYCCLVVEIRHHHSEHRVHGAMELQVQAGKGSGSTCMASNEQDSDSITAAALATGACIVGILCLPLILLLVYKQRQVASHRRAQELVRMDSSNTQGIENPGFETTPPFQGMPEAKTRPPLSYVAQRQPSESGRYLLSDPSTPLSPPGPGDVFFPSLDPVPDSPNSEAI

T2: chimeric C10orf54: human with mouse loop (construct CC9) (human/mouse chimera, UniProt Q9H7M9 33-311)
T2 construct: also called C10orf54 Construct 9; hsC10mmLOOP
T2 chain: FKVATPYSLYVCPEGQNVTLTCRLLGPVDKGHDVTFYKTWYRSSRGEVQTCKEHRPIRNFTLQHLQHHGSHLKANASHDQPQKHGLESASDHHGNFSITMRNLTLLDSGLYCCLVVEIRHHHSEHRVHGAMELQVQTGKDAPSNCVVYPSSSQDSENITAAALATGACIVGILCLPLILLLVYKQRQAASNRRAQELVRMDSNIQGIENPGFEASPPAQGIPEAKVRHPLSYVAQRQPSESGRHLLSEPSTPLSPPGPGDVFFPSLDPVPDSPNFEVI

T3: chimeric C10orf54: first half of IgV mouse and remainder (including loop) human (construct CC8) (human/mouse chimera, UniProt Q9H7M9 33-311)
T3 construct: also called C10orf54 Construct 8; mmabChsC10
T3 chain: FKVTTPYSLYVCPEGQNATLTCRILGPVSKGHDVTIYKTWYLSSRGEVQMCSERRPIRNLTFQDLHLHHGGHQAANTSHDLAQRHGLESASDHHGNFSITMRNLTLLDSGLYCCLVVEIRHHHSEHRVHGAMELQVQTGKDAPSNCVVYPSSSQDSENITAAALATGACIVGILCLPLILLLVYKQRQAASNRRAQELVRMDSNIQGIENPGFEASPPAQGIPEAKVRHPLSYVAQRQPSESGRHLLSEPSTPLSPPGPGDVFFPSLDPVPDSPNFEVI

T4: full length cynomolgus monkey C10orf54 (construct CC4) (cynomolgus monkey, UniProt Q9H7M9 33-311 (human entry))
T4 construct: also called C10orf54 Construct 4
T4 chain: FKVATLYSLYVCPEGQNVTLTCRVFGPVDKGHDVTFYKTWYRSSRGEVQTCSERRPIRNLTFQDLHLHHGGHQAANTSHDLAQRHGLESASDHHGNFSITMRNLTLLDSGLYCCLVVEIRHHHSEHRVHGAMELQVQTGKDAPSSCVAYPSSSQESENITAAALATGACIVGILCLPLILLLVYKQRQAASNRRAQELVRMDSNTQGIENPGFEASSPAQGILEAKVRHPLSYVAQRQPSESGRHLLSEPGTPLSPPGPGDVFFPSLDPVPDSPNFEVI

T5: chimeric C10orf54: first half of IgV human and remainder (including loop) mouse (construct CC7) (human/mouse chimera, UniProt Q9D659 33-308 (mouse entry))
T5 construct: also called C10orf54 Construct 7; hsABCmmC10
T5 chain: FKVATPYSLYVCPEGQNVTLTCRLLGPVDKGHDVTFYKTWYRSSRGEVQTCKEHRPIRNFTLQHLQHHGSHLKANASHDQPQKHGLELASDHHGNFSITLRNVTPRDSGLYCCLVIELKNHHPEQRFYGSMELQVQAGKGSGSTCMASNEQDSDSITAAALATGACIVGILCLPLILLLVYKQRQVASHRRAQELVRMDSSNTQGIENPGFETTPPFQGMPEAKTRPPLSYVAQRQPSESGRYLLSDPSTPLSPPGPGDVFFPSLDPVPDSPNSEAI

T6: chimeric C10orf54: mouse with human loop (construct CC10) (human/mouse chimera, UniProt Q9D659 33-308 (mouse entry))
T6 construct: also called C10orf54 Construct 10; mmC10hsLOOP
T6 chain: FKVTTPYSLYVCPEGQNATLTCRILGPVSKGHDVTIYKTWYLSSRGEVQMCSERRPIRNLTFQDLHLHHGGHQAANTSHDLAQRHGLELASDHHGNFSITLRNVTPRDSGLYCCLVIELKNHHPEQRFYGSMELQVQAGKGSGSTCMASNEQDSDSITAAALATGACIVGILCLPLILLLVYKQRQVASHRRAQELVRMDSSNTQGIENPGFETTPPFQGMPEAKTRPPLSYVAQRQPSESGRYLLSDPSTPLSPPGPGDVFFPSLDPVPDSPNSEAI

T7: C10orf54 (antigen of the KD values in Table 42) (human, UniProt Q9H7M9 33-311, limits assumed)
T7 sequence: T3 chain with T4A, A18V, I24L, S29D, I36F, L42R, M50T

B1: murine monoclonal antibody 353A (antibody, V domains shown)
VH: EVKLLESGGGLVQPGGSLKLSCAASGFDFSRYWMNWVRQAPGKGLEWIGEINPDSSTINYTPSLKDKFIISRDNAKNTLYLQMSKVRYEDTALYYCARPGEIYYYGSYWFAYWGQGTLVTVSA
VL: DIVLTQSPASLAVSLGQRATISCRASESVEYYGTSLMQWFQQKPGQPPKLLIYAASNVESRVPARFSGSGSGTDFSLNIHPVEEDDIAMYFCQQSRKDPWTFGGGTKLEIK
notes: Mouse hybridoma antibody
B2: murine monoclonal antibody 141A (antibody, V domains shown)
VH: QVQLQQSGAELMKPGASVKISCKATGYTFSRYWIEWVKQRPGHGLEWIGEILPGSGSTNYNEKFKGKATFTADTSSNTAYMQLSSLTSEDSAVYYCAGEEVYDGYPWFGYWGQGTLVTVSA
VL: QIVLSQSPAILSASPGEKVTMTCRASSSLSYMHWYQQKPGSSPKPWIYATSNLASGVPARFSGSGSGTSYSLTISRVEAEDAATYYCQQWSSNPYTFGGGTKLEIK
notes: Mouse hybridoma antibody
B3: murine monoclonal antibody 230A (antibody, V domains shown)
VH: EVQLQQSGPELEKPGASVKISCKASGYSFTGSNMNWVKQNNGKSLEWIGNIDPYYGYTTYNQKFKGKATLTVDKSSSTAYMQLKSLTSEDSAVYYCARDYDYALGYFDVWGAGTTVTVSS
VL: DVVMTQTPLSLPVSLGDQASISCRSSQSLVHSNGNTYLHWYLQKPGQSPKLLIYKVSNRFSGVPDRFSGSGSGTDFTLKISRVEAEDLGVYFCSQSTHVPYTFGGGTKLEIK
notes: Mouse hybridoma antibody
B4: murine monoclonal antibody 33A (antibody, V domains shown)
VH: QVQLQQSGAELMKPGASVKISCKATGYTFSSYWIEWVKQRPGHGLEWIGEILPGSGSTSYNEKFKGKATFTADTSSNTAYMQLSGLTSEDSAVYYCARWLLYYYAMVYWGQGTSVTVSS
VL: B3 VL with V3L, L29I, H39E, F92Y, S94F, S96G, T97S
notes: Mouse hybridoma antibody
B5: murine monoclonal antibody 175A (antibody, V domains shown)
VH: B4 VH with S31T, Y32H, G85S, V107D
VL: B3 VL with V3L, L29I, H39E, V56L, F92Y, S94F, S96G, T97S, V99F
notes: Mouse hybridoma antibody
B6: murine monoclonal antibody 321D (antibody, V domains shown)
VH: B4 VH with S17A, Y32H, S59D, G85S, V107D
VL: B3 VL with V3L, L29I, H39E, S81T, F92Y, S94F, S96G, T97S, Y101F
notes: Mouse hybridoma antibody
B7: murine monoclonal antibody 208A (antibody, V domains shown)
VH: QVQLQQSGAELVRPGVSVKISCKGSGYTFTDYGMHWVKQSHAKSLEWIGVIDTYYGDAGYNQKFKGKATMTVDKSSSTAYMELARLTSEDSAIYYCARRAGNAMDYWGQGTSVTVSS
VL: SIVMTQTPKFLLVSAGDRVTITCKASQSVSNDVAWYQQKPGQSPKLLIYYASNRYTGVPDRFTGSGYGTDFTFTISTVQAEDLAVYFCQQDYSSPRTFGGGTKLEIK
notes: Mouse hybridoma antibody
B8: murine monoclonal antibody 26A (antibody, V domains shown)
VH: EVQLQQSGPELVKPGASMKISCKASGFSFTGYTMNWVKQSHVKNLEWIGLISPYNGGTSYNQKFKGKATLTVDKSSSTAYMELLSLTSEDSAVYYCARRAYGYAMDYWGQGTSVTVSS
VL: QIVLTQSPAIMSASPGEKVTMTCSASSSVSYMYWYQQKPGSSPRLLIYDTSNLASGVPLRFSGSGSGTSYSLTISRMEAEDAATYYCQQWSSYPFTFGSGTKLEIK
notes: Mouse hybridoma antibody
B9: murine monoclonal antibody 305A (antibody, V domains shown)
VH: DVQLQESGPGLVKPSQSLSLTCSVTGYSITSGYYWNWIRQFPGNKLEWMGYISYDGSNNYNPSLKNRISITRDTSKNQFFLKLNSVTTEDTATYYCARRHDYLSFAYWGQGTLVIVSA
VL: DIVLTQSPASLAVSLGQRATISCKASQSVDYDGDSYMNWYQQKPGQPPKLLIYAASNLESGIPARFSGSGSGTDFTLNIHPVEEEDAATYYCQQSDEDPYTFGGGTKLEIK
notes: Mouse hybridoma antibody

Where a chain is given by its changes, count along the chain named.

The first test has as its target T1, chimeric C10orf54: human IgV with mouse …. In words: flow cytometry, transfected 293t cells, 2 ug/ml; stain = MFI >=20-fold over isotype control. How it is done:
(§1) To investigate epitope diversity of the anti-human C10orf54 antibodies, 293t cells were transfected with 1 of 10 different C10orf54 expression constructs that co-express a fluorescent marker. Two days after transfection, cells were stripped from the tissue culture plate, stained with 2 μg/ml anti-human C10orf54 antibody , washed, stained with anti-mouse IgG-Fc Alexa Fluor 647 polyclonal antibody, washed, and stained with the viability dye 4′,6-Diamidino-2-Phenylindole, Dihydrochloride. Upon acquisition of 10,000 live events on a flow cytometer, live cells marked with the fluorescent marker were analyzed for the degree of staining by the anti-human C10orf54 antibody. When the median fluorescence intensity fold-change relative to an isotype control antibody was at least 20-fold, the antibody was considered to stain the C10orf54 expression construct in question.
For orientation: A flow cytometer gives signals particle by particle.
Consider B1, for which the binding result is given as “binds”.

Take B2: the binding result is on record as “binds”.

With B3, the binding result was “binds”.

Take B4: the binding result is “binds”.

Regarding B5, the binding result is on record as “binds”.

In the case of B6, the binding result is “binds”.

Regarding B7, the binding result is “binds”.

As to B8, the binding result is “binds”.

In the case of B9, the binding result is “binds”.

A further test addresses T2, chimeric C10orf54: human with mouse …. Described as above. How it is done:
as §1
As for B1, the binding result is on record as “binds”.

B2: the binding result is recorded as “binds”.

Regarding B9, the binding result is “binds”.

The target of the next test is T3, chimeric C10orf54: first half of IgV …. The description is as above. How it is done: as §1
For B1, the binding result is “binds”.

On to B2, for which the binding result is listed as “binds”.

As for B3, the binding result is given as “binds”.

In the case of B4, the binding result was “binds”.

With B6, the binding result was “binds”.

B7: the binding result was “binds”.

Take B8: the binding result is “binds”.

The target in the next test is T4, full length cynomolgus monkey C10orf54 …. Described as above. How it is done: as §1
For the molecule B1, the binding result is recorded as “binds”.

In the case of B2, the binding result is recorded as “binds”.

In the case of B3, the binding result is on record as “binds”.

On to B4, for which the binding result is on record as “binds”.

B5: the binding result is on record as “binds”.

Consider B6, for which the binding result is listed as “binds”.

As to B7, the binding result was “binds”.

As for B8, the binding result is given as “binds”.

For the molecule B9, the binding result is listed as “binds”.

The next test concerns the target T5, chimeric C10orf54: first half of IgV …. Described as above. The procedure:
as §1
Consider B9, for which the binding result was “binds”.

The target in a further test is T6, chimeric C10orf54: mouse with human …. The description is as above. How it is done:
as §1
As to B3, the binding result is on record as “binds”.

Regarding B4, the binding result was “binds”.

As to B6, the binding result is listed as “binds”.

Turning to B7, the binding result is on record as “binds”.

As for B8, the binding result is “binds”.

In a further test the target is T7, C10orf54 (antigen of the KD values in …). In words: method and antigen form not stated.
As to B1, binding was characterised by a dissociation constant (Kd) of 2.9 nM.

B2 registered a Kd of 1.27 nM.

Molecule B3 showed a Kd of 1.05 nM.

B4 had a Kd of 6.61 nM.

The molecule B6 registered a Kd of 7.26 nM.

The molecule B7 yielded a Kd of 2.48 nM.

As to B8, the Kd is 0.677 nM.

Another test shares this target. In words: method and antigen form not stated; footnote: low affinity antibody.
With B5, the Kd was 108 nM.

Turning to B9, the Kd stood at 20.8 nM.

A word on the Kd: it is the equilibrium constant for the complex coming apart.
